Results as given in PMC12480839, “Selective agonists of KIR and NKG2A to evade missing self response of natural killer cells” (Scientific Reports, 2025).

Legend:
[1] = target: T1, recombinant KIR2DL2 protein (flow cytometry binding assay) (UniProt P43627); experiment: flow cytometry on cells; recombinant receptor proteins at 0.1 µM in autoMACS Running Buffer added to 1 × 10^4 K562 cells expressing the membrane-bound scFv, 4 °C, 90 min; detected with APC anti-human IgG Fc antibody; median fluorescence normalised to control K562 cells; conditions: one partner purified
T1 construct: KIR2DL2

[2] = target: T2, recombinant KIR2DL3 protein (flow cytometry binding assay) (UniProt P43628); experiment: as above; conditions: one partner purified
T2 construct: KIR2DL3; In the functional rows the receptor was whole KIR2DL3*001 expressed on NK-92 cells
T2 sequence (P43628 22-245): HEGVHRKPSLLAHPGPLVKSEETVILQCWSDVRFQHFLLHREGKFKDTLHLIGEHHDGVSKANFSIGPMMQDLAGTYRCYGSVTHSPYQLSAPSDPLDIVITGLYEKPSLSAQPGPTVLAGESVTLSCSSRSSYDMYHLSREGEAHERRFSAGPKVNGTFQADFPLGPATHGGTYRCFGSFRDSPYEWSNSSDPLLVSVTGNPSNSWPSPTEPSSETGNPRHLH

T1 sequence (P43627 22-245): as the sequence (P43628 22-245) above, with P16R, Q35E, R148C, T200I, E216K counted along it

B1: membrane-bound KIR2DL2/3 agonist 61 scFv expressed on K562 cells (scFv, V domains shown)
VH: QVQLVQSGAEVKKPGSSVKVSCKASGGTFSSFAISWVRQAPGQGLEWMGGIIPIFGTANYAQKFQGRVTITADESTSTAYMELSSLRSEDTAVYYCARVSGTTGGYYYGMDVWGQGTLVTVSS
VL: AIRMTQSPSSVSASVGDRVTITCRASQGIGNWLAWYQQKPGRAPKLLISTASSLQSGVPSRFSGGGSGRGFTLTISSLQLEDFATYYCQQSYITPWTFGQGTKVEIK
notes: (G4S)3 linker between the two scFv chains; second variable domain of agonist 61; Made with a CD8 signal peptide; firefly luciferase follows across a T2A peptide; also called scFv 61; KIR2DL2/3-specific scFv; source: K562 cells, transduced, on the cell surface; not shown: truncated human CD8 (CD8 hinge), C-terminal, kept
binding result [1]: binds
binding result [2]: binds
